Experimental data as given in article PMC12040651, “cAMP-independent Crp homolog adds to the multi-layer regulatory network in Porphyromonas gingivalis”.

Legend:
[1] = biological target: Crp^Pg protein (Porphyromonas gingivalis A7436 Crp homolog, CRP/FNR superfamily) (Porphyromonas gingivalis A7436); assay: cross-linking; 10 uM purified Crp^Pg in PBS, 30 min at room temperature, without or with 1 mM cAMP, then 0.2% formaldehyde for 1 h at 37°C; SDS-PAGE with CBB G-250 staining; monomer to dimer
CrpPg (Crp homolog) = biological target: T1, CrpPg (Crp homolog) (Porphyromonas gingivalis A7436, UniProt Q7MAW7 1-232); assay: EMSA; details: protein: recombinant, tags: 6xHis-MBP N-terminal, removed with Factor Xa, chain copies: 2, blunt
T1 sequence: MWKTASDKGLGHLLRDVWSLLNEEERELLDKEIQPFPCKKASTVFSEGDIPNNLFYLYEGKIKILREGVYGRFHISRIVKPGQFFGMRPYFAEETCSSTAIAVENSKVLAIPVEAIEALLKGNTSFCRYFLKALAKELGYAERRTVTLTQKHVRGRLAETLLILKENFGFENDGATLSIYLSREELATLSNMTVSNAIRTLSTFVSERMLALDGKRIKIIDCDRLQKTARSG

With “Crp^Pg protein (Porphyromonas gingivalis A7436 Crp homolog, CRP/FNR superfamily) (natural protein)” the stoichiometry N [1] was 2.

B1: mfa promoter fragment 5 (dsDNA)
DNA 1: ATTTAATATTAATCCTTTTAAACATTTGGCTTATGAAGTTAAACAAAATGTTTTTGGTCGGAGCATTGCTCTCATTGGGCT
DNA 2: AGCCCAATGAGAGCAATGCTCCGACCAAAAACATTTTGTTTAACTTCATAAGCCAAATGTTTAAAAGGATTAATATTAAAT
B1: binds (CrpPg (Crp homolog); label: 5' biotin via PBM_0217 (probe)).

B2: crpPg promoter fragment 4 (dsDNA)
DNA 1: CTCATAATAATAGTTCTACGGCCTTTCTTCCTCGTTGTACGGATTTGAGCAAATAGACATTCTCTGAACACTTATATGTGGAAGACAG
DNA 2: CTGTCTTCCACATATAAGTGTTCAGAGAATGTCTATTTGCTCAAATCCGTACAACGAGGAAGAAAGGCCGTAGAACTATTATTATGAG
B2: binds (CrpPg (Crp homolog); label: 5' biotin via PBM_0206 (probe)).
